Test results published in the DeepSol protein solubility set.

Assay: soluble on expression in E. coli; label from the status in PepcDB or PDB records

Soluble on expression in E. coli, not soluble:
MSSDRIVITGVAINTPIGDTLDLVGNNLLSGKSAIGYWRNFDTSNIYSKIGGQIPEYDIEGKLHAFSNRIPDIVLSRAEKVFKQTTKGVQLSVLMAMEAWLDAGLFEHIIDPFDCGIICGGHNLSDKYLLDQQKIFSDEPEFIDAFSGLNSLDTDHSSSVAQVLNTKGFAYLVGGTCATGNIAIQTAINAIKVDKKQVVAVVCPMASFHPMMLHSLTILEAICYSQYQDTPTKASRPYDINRSGFLPSEGGAVLIFEQAEHAKNRGAKIYAELLGASVNSDANHLGDPSHEGQVRVIQDVLKKCNISPEQVDYVSAHATSTKLGDIVELKSIKRVFGSHAEKLIINAPKSLLGHTMWASGVVEAAIAIWQMRQGEFHQSHNIETLDPAVELNVCASGNVKKEVNIFLNNSFGMGGINSASLFSRYHG, MTAPKVFVSHASEDKARFVVDFARRLRENGVDAWLDQWEMKPGDSLVDKIFEEGLREARAVVIVLSATSVRKPWVREELNASVVNRISRGTKLIPVVIDDCDVPEALRSTVLEHHHHHH, MPEASHPDHLIRAGRLQADDARLFTPEADGPADQTPPDEPGWLVTLATWKAAAATLRARRHPVGVQLPPDARLDELTGPDGELDRAALSFIAIEFPVYTDGRGYSLAQLLRRRYGWDGELRAVGDVMIDTIHYQARVGFDSFLVKPGHDPQRALAAFRTFSVHYQHTYPAPLAA, MPYIALEDGFLRSFGTGRHFPPLSLVVDRLGIYYDATRESELECLLASSRTLLDGIEDAVPEAMELVRERRLSKYNHGGFLATGVPADGRRRVLVVDQTEGDMSVTLGCAEAATFEAMLAAARAENPGALICVKTHPEVAAGDKSGYLSRVTDDADTLALRHDMNPLALLEQMDRVYVVSSQMGFEALMLDKPVICFGMPWYAGWGVTDDRQRCERRGRARSVEELFAGAYFHYTRYLDPVLH, YLFSSTAVASDESRPKIGLVLAGGGAKGAAHIGVLKALEEMHIPVDYITGTSMGAYVGGLYASGMSADEIEAFIDTVDWNSGFVDKVERSERQIRDKEYEDRYQIGTDIGFSFTELKAPKGFVQGQTMAKILRTTSDNIPYLNSFDQLPIPFRAVATDIEKLEPVVLDKGNLAEAMMASMSVPGALPPAEYDGRLLVDGGVVNNMPVDVV, MGSDKIHHHHHHMATTIKNRYEFVLFFDVENGNPNGDPDADNMPRIDPETSFGLVSDVCIKRKIRNYVALLKENEDDYQIYVQEKAVLNNQHKKAYEHFKIKPESKKLPKDTAQAEAITQFMCKNFYDIRTFGAVMTTEVNCGQVRGPVQLGFSRSLDPIVPQEITITRMAVTNERDLEKERTMGRKHIVNYALYRAEGFISAPLADKTGFSEEDLELLWDALINMFDHDRSAARGKMSSRKLYVFKHDSKLGNAPASILFDAITVKKINGNKPVRNFSDYEISVTGNEIPQGVEVLELL, MGSDKIHHHHHHMLSMAGQVIAEDTAKAIEAAVHHEARLERDKARDGSRHPEAILNFFEVAPGQRVLDLFSGGGYYSELLARVVGEQGSVLVHNNQAYLPFAKEDLAERHYQERLPNAEVIISEADELQLPAASFDRIFFILGFHDTYYHEPGWPAIDRERLLQQMFTSLKPGGIVAIIDHDAAPESDTDTAHELHRLAKRHVVDAMEAAGFKLQGSLAVLENPEDKLTLSAFDEAVRGKTSRYVLMFVKPKL, MGSDKIHHHHHHMKADRLLEIVALLQNHEKLTTHQLVDHLHVSSRTILRDMDTLSALGIPIVSERGRAGGWKLMDHFRSQLSGMSMTELKALFILPSDKVLKDLGIPTKGRDIRLNMLSSLQGNRKHAVRPYLEKVYIDTGTWKPSKERMEEFNVVQQAVFEEKKLYIVYENAKGEQRERLISPLGLVAKGSAWYVVATVETGDIRNFKLSRIKDSKLVREPIVKPETFSLATYWNESKEQFVQTLPSYEATVLAHDSIIHRLTFTGKFVENIQVGHRDDEWVTVNLCFHDEQEITEYVLGFGGRMKLVTPKHLIGRIVQQASAVIQQYASDKEPTNETKEGL, MGSDKIHHHHHHMSQNVYQFIDLQRVDPPKKPLKIRKIEFVEIYEPFSEGQAKAQADRCLSCGNPYCEWKCPVHNYIPNWLKLANEGRIFEAAELSHQTNTLPEVCGRVCPQDRLCEGSCTLNDEFGAVTIGNIERYINDKAFEMGWRPDLSDVKPTGKTVAIIGAGPAGLACADVLTRNGVKAVVFDRHPEIGGLLTFGIPAFKLEKEVMTRRREIFTGMGIEFKLNTEVGRDVQLDDLLKEYDAVFLGVGTYQSMRGGLDNEDAPGVYDALPFLIANTKQIMGFGETADEPYVSMEGKRVVVLGGGDTAMDCVRTSVRQNAAHVICAYRRDEENMPGSKREVKNAREEGVEFQFNVQPLGVEVNANGKVCGVKMARTEMGQPDAKGRRRAEIVPGSEHVVPADAVVMAFGFRPHSMEWLAKHSVEMDSQGRIIAPEGSENAFQTSNPKIFAGGDIVRGSDLVVTAIAEGRKAADGILNYLEV, MAHHHHHHMNIFKYYNIYLPLSVLGFVHIEVKSNNDVLNNSLSSISFNNYIFGRILSTNESADVVVEKPMEEKLNNTNENIDETHEESDPSNSTEETVKKCISNILDMTCDSRGHALILANNILRSQNVNEEVIILNEHDLLSQFLNGDVSNIFSDNKSIFKDLLDKDICSTYEVNFDQNSKCTLLTNKNDLQISEDILLLGNESEETNKLLDLWKRVMKNEESKLYLLKRNLYQQHLKLRNRSRLSHDKLNNILNECNVLVKKYNNNYDKTINNIFKEWSTVTPHNIFEFKLFIKACRLTWRKSIKNLHAEYTELLKRSFN, MSTRWRYYNSKRGNGFRGRGRGRGRGTSLTAVALPRDDNFHKGAQDGAYFKDMPMDPEQFRDETVLSLSFAQGMLGAAYYEQSSQLLKIMNDISEDLEFRFLKRLIDDVKPTLIIANRSQDLEFIKFLTTRYDPQEKIYEDGTTEEGTSEDTVPTWDSSLAYSTDETTAEKEEKEEDEDDDDEGLPAKLNKLPNNFFRMSRAIERLKAMAGSHDSSMTEEDKYIIIKMRFDIEAVNMIRSFGALLLFLDETRMGVTDDPLSVTSPIKSIKTFTLGNLVEIDFNTIQALDILPKETENKKTFGQGRSLYQLMDKCRSTVGKKCLRKWFRNPTTDRDDLVSRQKCVHYFKQDWNAEVTAKLSSILGRVKALNSVFQKFQSGTAQLIHWECFVSTVNALVEILNIIRQTPISKEFPVESDLLREVSEIAVIAGSIINFAESKIQGRVTVMNGIDEELDEIRDTYENMPMVLTAIAKQEEARLGLPPYSNVACVYIPLVGFVLSVPRDYGVESQPDMTLLYSTHEDLRVRNATTSRLDDEFGDILMRLIDSQTAIILTLKTRVMKKKRSIIKLLSIASRIDVLISFGLIAAQNGWNCPALVDEPVIEAVELYHPISVLVVKKSFVPNQVSSGRDGIKASIITGPNACGKSVYMKSIGIMVFLSHIGSFVPARHAKIGIVDRIVTRMFTVDSVLDGMSTFAKDVEQVALALRKATGNSLVIIDEFGKGTMTEVGLSLLASVMTYWMNRGADRCPHIFLSSHFHALPNYIPLETNIATFLTFTVLREAGGKIKYLFRMTPGLVDCSFALSVAKEEGIPPPVIGRACRIYKALKAGTLLKEIKAEVSNDNEKQLVEDMDVVLADEDGFMAAVESFVKRKKTSFCESSMRNVSEEIEKERSEASTPASKSRSTITARSNSVLSSRSMASVDQLSVLDALLPKKKKKKVTGSSMESSMSPDPFQEEDEGTEGEEDQISAPVSRPTLPSVQKYASEEEKQQSINSRHSFSTRTAIHIPTPIQMGEAGGVKRPRSTSTSSPGPSASKSVRTEVFKKTPNVKESQVLETPKQLSISSFLEPKFPSSEKDVISRVSERYLQSDPFKTPISDRRSQQSSRHSTPKNRSMNQSLIQSARDTPHETIRSSNEVNPEFFNIFNFPDDSILKSQDTYDPNVTPRSSSRRELRPDVSHSQNSQFGEVFSELGTQFSIFNSQQSFPGNSMGTTNPDCSIFDDFFANSQDGEKKIDSTKTSMPIVNSDNFIFKTPEPRSSEKQRSLLKNKGQASNSSISPSSLILGQLAFGDVDQTPRPRGDNPIEFQYDVVDDDDPIFEEKNCSAPVFEFLKSNDDEEDDEFLKSFLETEGSLHIDTSADETIDRSKRS, MGSDKIHHHHHHMTFGEKLLNAASTRGRLCVGIDPHESLLTSWGLPVNVDGLAEFSRACVEAFADTVALVKPQVAFYERFGSAGFAILEETIQTLRERGCLVVSDAKRGDIGSTMAGYASAWLDPASPLSSDAVTVSPYLGFHSLDPVFELAEQHGRGVFVLAATSNPEARELQDQQNADGVSISQQIVDQAAALNAPYMAQGKAGNIGVVIGATLSKPPRLSTLGGAILMPGVGAQGGTASDVDEIAGDMAHLAFPNVSRSILATGPDIAEMKNSVAKNAADFPGFPRS, MEQRTRLALLKEIAEFLNEETEMYSMTQGALKYLIEGSNFTTGWIFFINSVGEHELVSHVALPQSLTADHCHYIKDGSCWCVKAFNQRRLMKASNIVNCSRINLASKAFPSQNDNITHHATVPLKSGQEQFGILNVASPNTEIYSDEDLELLESVAFQLGSAIKRIYLTDREKEAAKINERNRLARDLHDSVNQMLFSVKLTAHAAYGMSNESIAKQAFKTIEKTSQNAVNEMRALIWQLKPVGLEQGLIHALTAYSKLMHIQLNVNVEGLIDLSNEIEENIYRALQECINNVKKHADTNKMDLTLKQMNDILYIDVIDYGQGFEIDNVQIASSHGINNIKQRVKLLRGKVTFHSQPTKGTQIQFTIPIK, SPPNLTPAQSNRVCNSLALLQCVASHSDTRMLFLKAHIPLYLYPFLNTTSKSRPFEYLRLTSLGVIGALVKVDDTEVISFLLSTEIIPLCLRTMEMGSELSKTVATFIVQKILLDDVGMDYICTTAERFFAVGRVLGNMVQSLVEQPSPRLLKHIIRCYLRLSDNPRACAALASCLPDSLRDGSFSNCLREDPTARRWLQQLVHNVGVGRVPTHQGGGFEHML, SRTVIPGAVKYTLVYDNGSSQAVIATAPEITPTELEATLRQAASHLYSYGRLGSRGNNQLTIRARTIIHAEPGVSVPVYLGKVQRTLTTREDPEMAVEVYLDKFAQLSKPTA, MAHHHHHHMALEIDIDNVISKLIEVRGTRPGKNVNLTENEIKILCLSSREIFLNQPILLELEAPIKICGDIHGQFYDLLRLFEYGGFPPDANYLFLGDYVDRGKQSLETICLLLAYKIKYPENFFLLRGNHECASINRIYGFYDECKRRYSVKLWKTFIDCFNCLPVAAIIDEKIFCMHGGLSPELNNMEQIRKITRPTDVPDNGLLCDLLWSDPEKEINGWGENDRGVSFTFGQDVVHNFLRKHELDLICRAHQVVEDGYEFFAKRQLVTLFSAPNYCGEFDNAGAMMSVDETLMCSFQILKPVEKKKAAN, MNNLIRLRDGVAEVCRDDPWQLLRELPDALPPGPLLLPLAAWLERRGEAGAAAPWLAPDDEVEALLPHFAELPLIAVDFPSFRDGRGYSLAYLLRVRLGWSGELRAVGDVLRDQLSHMRQCGFDAFAVREDKNVEDALKGLAGLSVLYGRSAIEPRPLFRRR

Soluble on expression in E. coli, soluble:
EQMEGMLCRKQEMEAFGKKAANRSWQNVYCVLRRGSLGFYKDAKAASAGVPYHGEVPVSLARAQGSVAFDYRKRKHVFKLGLQDGKEYLFQAKDEAEMSSWLRVVNAAIA, SASEVEEQIPVREEFFLCGGVETKIIKCGPWTNLFEKQDVSKPKQLIFIIPGNPGYSAFYVPFAKALYTLMKSRFPVWIISHAGFSVTPKDKKVLAAPQEESNAQKIEDVYGLNGQIEHKIAFLRAHVPKDVKLILIGHSVGTYMTLHVMKRVPELPVAHAFLLFPTIERMSESPNGKFATPFLCQFRYLLYATSYLLFKPCPEVIKSFIIQKLMGQMNIKLELPLTDILQPFCLA, MPEHLNARVEACYRQAEHFFQRSFPRPTVSFRLRGQKAGVAHLDENLLRFNPQLYRENREHFLEQTVAHEVAHLIAHQLFGPRIRPHGEEWQLIMRGIYGLPPDRCHTYAVKRRATTRYLYRCHCPEHNDFPFSPQRHTLVAKGRRYYCRRCKATLVFTGEVLRELEHHHHHH
